The text below walks through data of patent US20230137562A1, “TAU AGGREGATION INHIBITORS” (priority 2017, published 2023).

B1: WRIEIRYW (peptide)
peptide: WRIEIRYW
B2: RIRIWKW (peptide)
peptide: RIRIWKW
B3: RIRRWIW (peptide)
peptide: RIRRWIW
B4: RIRIWYW (peptide)
peptide: RIRIWYW
B5: RIRAWIW (peptide)
peptide: RIRAWIW
B6: WRINIRYW (peptide)
peptide: WRINIRYW
B7: WYOLOIOW (peptide)
peptide: WY[Orn]L[Orn]I[Orn]W
B8: WRIWIRAW (peptide)
peptide: WRIWIRAW
B9: WRIWARYW (peptide)
peptide: WRIWARYW
B10: IRIWLW (peptide)
peptide: IRIWLW
B11: WRAWIRYW (peptide)
peptide: WRAWIRYW
B12: WEIRIRW (peptide)
peptide: WEIRIRW
B13: WRLWIHWW (peptide)
peptide: WRLWIHWW
B14: HWWIRIRYW (peptide)
peptide: HWWIRIRYW
B15: RIRLWYW (peptide)
peptide: RIRLWYW
B16: W(hR)I(hR)I(hR)W (peptide)
peptide: W[hArg]I[hArg]I[hArg]W
B17: RIRIWAW (peptide)
peptide: RIRIWAW
B18: ILRYWH (peptide)
peptide: ILRYWH
B19: LFYLRLR (peptide)
peptide: LFYLRLR
B20: WRIEIRW (peptide)
peptide: WRIEIRW
B21: WRIFIRYW (peptide)
peptide: WRIFIRYW
B22: RIRIRIW (peptide)
peptide: RIRIRIW
B23: WRIAIRW (peptide)
peptide: WRIAIRW
B24: WYRVRGRVW (peptide)
peptide: WYRVRGRVW
B25: YKLHIRHW (peptide)
peptide: YKLHIRHW
B26: WRIWIRYL (peptide)
peptide: WRIWIRYL
B27: FRIRIRF (peptide)
peptide: FRIRIRF

Where “and” joins values, the source holds several entries; their conditions need not be identical. Identical values can stand only once. Square brackets hold non-standard residues; d marks the D form. Ends that are not written are not given here. hArg = N=C(N)NCCCC[C@H](N)C(=O)O; Orn = NCCC[C@H](N)C(=O)O

For this test, the target named is His-Tau40P301L Tau (UniProt P10636-8 1-441). Kind of test: cell-based or functional assay.
Sequence of His-Tau40P301L Tau (P10636 other isoform, or with tags, fused parts or gaps limits assumed): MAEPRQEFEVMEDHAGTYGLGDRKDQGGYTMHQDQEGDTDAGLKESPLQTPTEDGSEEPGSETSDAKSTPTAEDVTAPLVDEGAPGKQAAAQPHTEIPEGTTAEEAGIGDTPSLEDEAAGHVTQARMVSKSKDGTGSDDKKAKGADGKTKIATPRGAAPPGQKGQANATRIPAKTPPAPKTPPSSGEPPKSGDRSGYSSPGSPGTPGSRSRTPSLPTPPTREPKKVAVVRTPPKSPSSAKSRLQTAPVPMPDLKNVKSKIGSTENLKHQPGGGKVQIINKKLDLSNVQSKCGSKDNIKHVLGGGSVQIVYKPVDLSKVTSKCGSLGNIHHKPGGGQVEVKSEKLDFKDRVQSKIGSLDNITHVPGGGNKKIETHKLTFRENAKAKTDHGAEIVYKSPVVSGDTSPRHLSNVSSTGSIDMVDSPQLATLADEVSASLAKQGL
As to B1, the “IC50 (µM), Tau40 assay (ThT)” value was found to be 12 µM. With B2 the figure was 5.71 µM; with B3, 4.55 µM.

In the case of B4, the “IC50 (µM), Tau40 assay (ThT)” value is 5.51 µM. With B5 the figure was 14.6 µM; with B6, 7.45 µM; with B7, 5.2 µM. With B8 the figure was 3.54 µM; with B9, 2.95 µM. On to B10, for which the “IC50 (µM), Tau40 assay (ThT)” value was 4.08 µM. With B11 the figure was 2.59 µM; with B12, 11.1 µM. As to B13, the “IC50 (µM), Tau40 assay (ThT)” value is 2.96 µM.

Consider B14, for which the “IC50 (µM), Tau40 assay (ThT)” value came out at 3.11 µM. As for B15, the “IC50 (µM), Tau40 assay (ThT)” value was found to be 8.01 µM. Consider B16, for which the “IC50 (µM), Tau40 assay (ThT)” value was 6.13 µM.

As to B17, the “IC50 (µM), Tau40 assay (ThT)” value amounted to 8.38 µM. With B18 the figure was 2.49 µM; with B19, 7.13 µM; with B20, 4.84 µM. With B21 the figure was 7.67 µM; with B22, 2.89 µM; with B23, 4.01 µM. As to B24, the “IC50 (µM), Tau40 assay (ThT)” value was 6.4 µM and 6.5 µM. Regarding B25, the “IC50 (µM), Tau40 assay (ThT)” value worked out at 5.72 µM.

On to B26, for which the “IC50 (µM), Tau40 assay (ThT)” value was 4.09 µM. With B27 the figure was 6.01 µM.
